Biological target: T1, His6-NhaR (Escherichia coli MG1655?) (UniProt P0A9G2)
T1 sequence: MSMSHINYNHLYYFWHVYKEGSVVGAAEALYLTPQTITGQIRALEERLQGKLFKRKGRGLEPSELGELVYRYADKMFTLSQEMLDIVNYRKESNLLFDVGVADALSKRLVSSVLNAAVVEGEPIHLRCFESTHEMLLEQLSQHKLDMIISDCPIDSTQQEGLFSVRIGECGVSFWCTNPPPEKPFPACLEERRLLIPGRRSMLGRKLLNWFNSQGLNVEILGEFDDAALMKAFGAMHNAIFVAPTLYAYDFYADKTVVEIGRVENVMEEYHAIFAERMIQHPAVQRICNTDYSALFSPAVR
Assay: EMSA
Details: NhaR EMSA: 20 mM Tris-HCl pH 8.0, 100 mM NaCl, 1 mM DTT, 10% glycerol, 125 ug/mL BSA, 10 ng DNA in 10 uL, 25 C 20 min; Fis: 10 mM Tris-HCl pH 8.0, 150 mM NaCl …

Sequence | binding
CAATTAAATCCGTGAGTGCCGTAGCGCAGCCTTTCATCAGGACTTTCGAAAAATCCGAAATCATGCATCGGAATTTACTGATTTAATTATTTTAATCCTAATTTATTTTGAAAAAGGCATTGGGATTTATGCCGTATTCCTGAAGA (double strand) [PpgaA] | binds
CCCGGTAATCTATTGTGGGAATTTAATTTAAGTGCAGAAGTAATATTTTCGCCGGATTTTATTCGGAATATCCTGCTTATCCTCGTGCTGTTTCTCACGTAGTCTATAATTTCCTTTTTAAGCCCACAGGAGAGCAAC (double strand) [PosmC] | binds
CCGTCAAAAACGCATCTCACCGCTGATGGCGCAAATTCTTCAATAGCTCGTAAAAAACGAATTATTCCTACACTATAATCTGATTTTAACGATGATTCGTGCGGGGTAAAATAGTAAAAACGATCTATTCACCTGAAAGAGAAATAAAAAGTGAAACATCTGCATCGATTCTTTAGCAGTGATGCCTCGGGA (double strand) [PnhaA] | binds
